Tests used:
Conditions in all cases: label: 32P
[1] = target: T1, TRαm2 (UniProt P10827-2 P10827-2:1-213, C-terminal deletion of 197 aa); assay: EMSA; several complexes
T1 sequence: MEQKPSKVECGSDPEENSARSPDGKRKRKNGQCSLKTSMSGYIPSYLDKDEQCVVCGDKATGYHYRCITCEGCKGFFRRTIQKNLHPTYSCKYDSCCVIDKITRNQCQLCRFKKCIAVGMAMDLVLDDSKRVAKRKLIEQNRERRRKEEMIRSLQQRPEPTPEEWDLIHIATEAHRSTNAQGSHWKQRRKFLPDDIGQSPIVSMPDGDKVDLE
Method: (§1) In vitro translated receptor protein (1 to 5 μl depending on the translation efficiency) was incubated with the ^32P-labeled oligonucleotides in a 20-μl reaction mixture containing 10 mM hepes buffer, pH 7.9, 50 mM KCl, 1 mM DTT, 2.5 mM MgCl, 10% glycerol, and 1 μg of poly(dI-dC) at 25° C. for 20 minutes. In general, relative low receptor concentration was used to obtain the clear effect of heterodimer formation. The reaction mixture was then loaded on a 5% nondenaturing ployacrylamide gel containing 0.5×TBE (1×TBE=0.089 M Tris-borate, 0.089 M boric acid, and 0.002 M EDTA). To analyze the effect of RXRα or the nuclear proteins on receptor DNA binding activity, RXRα or the cell extracts were preincubated with receptor protein at room temperature for 10 minutes before performing the DNA binding assay. When antibody was used, 1 μl of the antiserum was incubated with the specific translation products at room temperature for 45 minutes before performing the experiments described above.

[2] = target: T2, RARα (Homo sapiens, UniProt P10276 P10276:1-462); assay: EMSA; no detectable complex under conditions used
T2 sequence: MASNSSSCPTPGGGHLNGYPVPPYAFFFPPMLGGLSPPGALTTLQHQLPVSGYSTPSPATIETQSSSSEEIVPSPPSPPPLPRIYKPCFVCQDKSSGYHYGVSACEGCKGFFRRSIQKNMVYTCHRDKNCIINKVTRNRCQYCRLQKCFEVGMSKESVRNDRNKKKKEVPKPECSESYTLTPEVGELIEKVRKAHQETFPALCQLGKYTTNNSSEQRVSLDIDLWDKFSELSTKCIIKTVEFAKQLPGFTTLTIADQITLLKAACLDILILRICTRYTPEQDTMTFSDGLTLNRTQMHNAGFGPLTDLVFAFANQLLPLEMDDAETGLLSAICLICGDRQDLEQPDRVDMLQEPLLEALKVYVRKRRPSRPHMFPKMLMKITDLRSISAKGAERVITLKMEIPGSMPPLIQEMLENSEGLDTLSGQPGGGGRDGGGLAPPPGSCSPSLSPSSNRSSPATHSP
Method: (§2) (a) In vitro synthesized TRα, TRβ, RARα, RARβ, RARγ and TRα2 receptor proteins were preincubated either with (+) or without (−) equal amount of in vitro synthesized RXRα protein at room temperature for 10 minutes. Following this preincubation, the reaction mixtures were incubated with ^32p-labelled palindromic TRE (for 1 sequence see FIG. 2a) and analyzed by gel retardation assay as described in Experimental Procedures. […] As a control, equal amounts of TRα and RARα proteins were also mixed and incubated with labelled TRE.
as §1

[3] = target: T3, RARβ (UniProt P10826-2 P10826-2:1-448); assay: EMSA; no detectable complex under conditions used
T3 sequence: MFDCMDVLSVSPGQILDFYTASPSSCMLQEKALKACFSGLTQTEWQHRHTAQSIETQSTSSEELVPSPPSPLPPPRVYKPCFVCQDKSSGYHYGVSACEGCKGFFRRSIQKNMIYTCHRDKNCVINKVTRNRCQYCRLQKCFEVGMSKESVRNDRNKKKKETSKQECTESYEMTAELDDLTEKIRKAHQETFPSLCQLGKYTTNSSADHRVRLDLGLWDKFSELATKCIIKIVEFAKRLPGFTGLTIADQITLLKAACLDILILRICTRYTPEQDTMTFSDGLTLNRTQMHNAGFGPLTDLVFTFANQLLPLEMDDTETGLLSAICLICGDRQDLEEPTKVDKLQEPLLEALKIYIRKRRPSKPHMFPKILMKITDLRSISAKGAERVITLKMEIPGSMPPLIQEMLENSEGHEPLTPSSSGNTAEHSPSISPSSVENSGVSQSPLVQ
Method: as §2, §1

[4] = target: T4, RARγ (UniProt P13631 P13631:1-454); assay: EMSA; no detectable complex under conditions used
T4 sequence: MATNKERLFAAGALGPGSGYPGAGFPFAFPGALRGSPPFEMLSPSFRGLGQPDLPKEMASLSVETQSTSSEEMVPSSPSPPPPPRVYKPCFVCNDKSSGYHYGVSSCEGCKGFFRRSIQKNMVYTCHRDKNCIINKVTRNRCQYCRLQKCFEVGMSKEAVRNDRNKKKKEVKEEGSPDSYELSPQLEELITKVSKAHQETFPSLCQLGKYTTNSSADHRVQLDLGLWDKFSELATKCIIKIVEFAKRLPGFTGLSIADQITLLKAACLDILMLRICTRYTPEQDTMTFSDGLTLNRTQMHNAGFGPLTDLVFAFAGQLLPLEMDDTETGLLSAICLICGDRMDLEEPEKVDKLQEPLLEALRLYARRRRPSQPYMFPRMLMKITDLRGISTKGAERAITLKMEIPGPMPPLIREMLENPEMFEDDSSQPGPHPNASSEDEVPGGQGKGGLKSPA
Method: as §2, §1

B1: palindromic TRE (dsDNA)
DNA 1: GATCTCAGGTCATGACCTGAGATC
DNA 2: GATCTCAGGTCATGACCTGAGATC
Which results are given for B1?
binding result [1]: binds; binding result [2]: no binding; binding result [3]: no binding; binding result [4]: no binding

Source: patent US7026125, “Heterodimers of retinoid X receptors (RXRS) and other steroid hormone receptors” (Ligand Pharmaceuticals)
